Like-named read-outs stand apart in the source and are kept apart here.

The labels stand for the following.
T1: CCL4 (human, UniProt P13236 24-92)
T1 chain: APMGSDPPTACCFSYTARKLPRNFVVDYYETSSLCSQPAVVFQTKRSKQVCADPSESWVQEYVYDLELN

T2: CCL19_HUMAN (human, UniProt Q99731 22-98)
T2 chain: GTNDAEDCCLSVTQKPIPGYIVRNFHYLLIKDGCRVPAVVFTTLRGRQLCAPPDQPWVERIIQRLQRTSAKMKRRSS

T3: CCL17_HUMAN (human, UniProt Q92583 24-94)
T3 chain: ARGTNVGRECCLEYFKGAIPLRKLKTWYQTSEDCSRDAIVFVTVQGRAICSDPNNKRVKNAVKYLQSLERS

T4: CCL5_HUMAN (human, UniProt P13501 24-91)
T4 chain: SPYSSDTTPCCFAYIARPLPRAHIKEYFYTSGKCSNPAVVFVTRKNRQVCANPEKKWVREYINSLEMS

T5: CCL8_HUMAN (human, UniProt P80075 24-99)
T5 chain: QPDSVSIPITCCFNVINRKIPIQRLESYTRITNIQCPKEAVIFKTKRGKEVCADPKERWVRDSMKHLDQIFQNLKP

T6: CCL15_HUMAN (human, UniProt Q16663 22-113)
T6 chain: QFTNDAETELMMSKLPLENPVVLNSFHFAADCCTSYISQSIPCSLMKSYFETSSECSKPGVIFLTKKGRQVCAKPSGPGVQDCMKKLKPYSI

T7: CCL1_HUMAN (human, UniProt P22362 24-96)
T7 chain: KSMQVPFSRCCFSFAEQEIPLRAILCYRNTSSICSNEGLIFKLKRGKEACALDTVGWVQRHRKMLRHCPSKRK

B1: P991_AMBCA (other)
chain: ENGEGTTQPDYDNSTDYYNYEDFKCTCPAPHLNNTNGTVMKPIGCYYTCNVTRCTAPDTYPCYNLTEHQAKNLTTSPTTLCAVGNCDHGICVPNGTKELCFKAPNLEE
B2: P1156_IXORI (other)
chain: ADDDNELFTVQYCGMNCTKDEGGTWTGCTGKKEGCKCYHESGKNYGLCLSTEYTDFSQYGNPSDSEIEAAKPKRSDTLSH
B3: P943_IXORI (other)
chain: RSKQPTASQSSKNSIKAEFCDTNCTQGTNGAWSGCSEGCFCVHVGNNTKGRCMKLSSDYDYTTQ
B4: CCL4_HUMAN (ligand)
chain: T1 chain
B5: CCL22_HUMAN (ligand)
chain: GPYGANMEDSVCCRDYVRYRLPLRVVKHFYWTSDSCPRPGVVLLTFRDKEICADPRVPWVKMILNKLSQ
B6: P672_RHIPU (other)
chain: VCEVSEQEGVGEDNATEDEDYEDFFKPVTCYFANSTVGPLRPPNCTVVCTNNTAWWNDTKSDGGHCYSEYRPEKRTHSREIYNCTIGVCGNGTCIANHTYADCW
B7: CCL18_HUMAN (ligand)
chain: AQVGTNKELCCLVYTSWQIPQKFIVDYSETSPQCPKPGVILLTKRGRQICADPNKKWVQKYISDLKLNA
B8: P1243_AMBAM (other)
chain: RNHTEDNSTEYYDYEEARCACPARHLNNTNGTVLKLLGCHYFCNGTLCTAPDGYPCYNLTAQQVRTLTTYPNTSCAVGVCMKGTCVKNGTMEQCFKTP
B9: CCL3_HUMAN (ligand)
chain: SLAADTPTACCFSYTSRQIPQNFIADYFETSSQCSKPGVIFLTKRSRQVCADPSEEWVQKYVSDLELSA
B10: P985_AMBPA (other)
chain: DEESEELGASTDVDYEELDANCTCPAPALTSTRNNKHYPLGCIYNCSSYNCTIPDGTPCYVLTLGEVKEHLQIGSTVPNCTCGLCRNGTCVSNGTVEECFAVEEIEET
B11: CCL25_HUMAN (ligand)
chain: QGVFEDCCLAYHYPIGWAVLRRAWTYRIQEVSGSCNLPAAIFYLPKRHRKVCGNPKSREVQRAMKLLDARNKVFAKLHHNTQTFQAGPHAVKKLSSGNSKLSSSKFSNPISSSKRNVSLLISANSGL

The test “CCL22_HUMAN” addresses B5. Briefly: BLI.
A further test deals with CCL2_HUMAN (human, UniProt P13500 24-99). Briefly: BLI.
The next test concerns the target T1, CCL4. As to the kind of experiment: BLI. (In BLI a coated tip is dipped into the sample, and binding shifts an interference pattern.)
The next test addresses T2, CCL19_HUMAN. As to the kind of experiment: BLI.
For another test, the target named is T3, CCL17_HUMAN. Briefly: BLI.
The test “CCL3_HUMAN” addresses B9. As to the kind of experiment: BLI.
Another test deals with T4, CCL5_HUMAN. Briefly: BLI.
In a further test the target is T5, CCL8_HUMAN. As to the kind of experiment: BLI.
Another test concerns the target T6, CCL15_HUMAN. As to the kind of experiment: BLI.
The test “CCL18_HUMAN” concerns the target B7. Briefly: BLI.
The next test addresses CCL11_HUMAN (human, UniProt P51671 24-97). Briefly: BLI.
The target in a further test is CCL24_HUMAN. As to the kind of experiment: BLI.
A further test concerns the target CCL23_HUMAN. Briefly: BLI.
The next test deals with CCL27_HUMAN. As to the kind of experiment: BLI.
Another test deals with CCL4L1_HUMAN. Briefly: BLI.
A further test addresses CCL14_HUMAN. Briefly: BLI.
The target of the next test is CCL13_HUMAN. As to the kind of experiment: BLI.
The next test concerns the target CCL16_HUMAN. Briefly: BLI.
A further test deals with CCL7_HUMAN. As to the kind of experiment: BLI.
For the next test, the target named is CCL3L1_HUMAN. As to the kind of experiment: BLI.
Test [1] has as its target CXCL3_HUMAN. As to the kind of experiment: BLI.
For test [2], the target named is CXCL1_HUMAN. As to the kind of experiment: BLI.
A further test concerns the target CXCL8_HUMAN (human, UniProt P10145 28-99). As to the kind of experiment: BLI.
The target of test [3] is CXCL1_HUMAN. As to the kind of experiment: BLI. This is another data set of the same source.
Test [4] addresses CXCL3_HUMAN. Briefly: BLI. This is another data set of the same source.
The target in another test is EVASIN1. Briefly: -; previously described evasin.
In test [5] the target is EVASIN4. As to the kind of experiment: -; previously described evasin.
Test [6] has as its target EVASIN4. As to the kind of experiment: -; previously described evasin. The source holds these as a separate data set.
Another test concerns the target CCL20_HUMAN (human, UniProt P78556 27-96). Briefly: BLI.
For another test, the target named is T7, CCL1_HUMAN. As to the kind of experiment: BLI.
The target of the next test is CCL21_HUMAN. Briefly: BLI.

CCL11_HUMAN, sequence (P51671 24-97): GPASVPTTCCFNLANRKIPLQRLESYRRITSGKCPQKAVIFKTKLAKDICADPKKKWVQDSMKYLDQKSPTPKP
CCL2_HUMAN, sequence (P13500 24-99): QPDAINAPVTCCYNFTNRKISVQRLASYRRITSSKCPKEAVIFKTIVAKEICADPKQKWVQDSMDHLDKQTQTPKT
CCL20_HUMAN, sequence (P78556 27-96): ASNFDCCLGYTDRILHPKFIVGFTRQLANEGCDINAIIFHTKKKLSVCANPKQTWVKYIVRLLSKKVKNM
CXCL8_HUMAN, sequence (P10145 28-99): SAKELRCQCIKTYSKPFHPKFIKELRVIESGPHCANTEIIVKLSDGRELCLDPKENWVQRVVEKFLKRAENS

For the molecule B1, the Kd was found to be 3.97 nM in the test with CCL22_HUMAN; 12.2 nM with CCL2_HUMAN; 5.82 nM with CCL4; 14.4 nM in the test with CCL19_HUMAN; 7.66 nM in the test with CCL17_HUMAN; 1.08 nM with CCL3_HUMAN. Further, the Kd turned out to be 1.47 nM in the test with CCL5_HUMAN; 8.79 nM with CCL8_HUMAN; 159 nM with CCL15_HUMAN; 0.209 nM with CCL18_HUMAN; 3.43 nM in the test with CCL11_HUMAN; 6.54 nM with CCL24_HUMAN. For the same molecule, the Kd came to 5.58 nM with CCL23_HUMAN; 38.9 nM in the test with CCL27_HUMAN; 0.827 nM in the test with CCL4L1_HUMAN; 0.43 nM with CCL14_HUMAN; 0.419 nM in the test with CCL13_HUMAN; 1.28 nM with CCL16_HUMAN. In addition, the Kd in the test with CCL7_HUMAN came to 0.514 nM; in the test with CCL3L1_HUMAN, 1.4 nM.

Regarding B2, the values for the Kd with CXCL3_HUMAN [1], with CXCL1_HUMAN [2] and with CXCL8_HUMAN were 81 nM, 3.25 nM and 4.6 nM, respectively.

For B3, the Kd with CXCL1_HUMAN [3] amounted to 24 nM; with CXCL3_HUMAN [4], 270 nM.

For the molecule B4, in the test with EVASIN1, binding was put at a Kd of 0.5 nM.

With B5, binding with EVASIN4 [5] was characterised by a dissociation constant (Kd) of 0.43 nM.

Turning to B6, the Kd with CCL2_HUMAN was found to be 9.09 nM; with CCL3_HUMAN it was 2.6 nM; with CCL8_HUMAN it was 3.7 nM; with CCL15_HUMAN it was 31.5 nM; with CCL23_HUMAN, 10 nM; with CCL14_HUMAN it was 5.5 nM. Also, the Kd came out at 3.29 nM in the test with CCL16_HUMAN, 16.1 nM with CCL7_HUMAN and 2.7 nM with CCL3L1_HUMAN.

Consider B7, for which the Kd in the test with EVASIN1 stood at 3 nM; with EVASIN4 [6], 0.03 nM.

As to B8, the Kd worked out at 22.3 nM with CCL22_HUMAN; 15.3 nM with CCL4; 0.592 nM in the test with CCL19_HUMAN; 0.734 nM with CCL17_HUMAN; 5.3 nM with CCL3_HUMAN; 8.34 nM with CCL20_HUMAN. For the same molecule, the Kd in the test with CCL5_HUMAN stood at 1.74 nM; with CCL1_HUMAN, 21.3 nM; with CCL8_HUMAN it was 21.9 nM; with CCL15_HUMAN, 5.05 nM; with CCL18_HUMAN, 0.00501 nM; with CCL11_HUMAN, 6.03 nM. For the same molecule, the equilibrium dissociation constant (Kd) turned out to be 7.39 nM with CCL24_HUMAN; 6.62 nM with CCL23_HUMAN; 15.1 nM with CCL27_HUMAN; 35.4 nM in the test with CCL4L1_HUMAN; 6.54 nM in the test with CCL21_HUMAN; 0.816 nM with CCL14_HUMAN. The Kd with CCL13_HUMAN is 0.788 nM; with CCL16_HUMAN, 0.926 nM; in the test with CCL7_HUMAN it was 8.66 nM; with CCL3L1_HUMAN, 9.61 nM.

For B9, the Kd came out at 0.1 nM with EVASIN1 and 0.06 nM with EVASIN4 [6].

With B10, the Kd was 16.8 nM in the test with CCL2_HUMAN; 7.47 nM with CCL4; 8.9 nM with CCL3_HUMAN; 3.52 nM with CCL5_HUMAN; 8.32 nM with CCL1_HUMAN; 6.53 nM with CCL8_HUMAN. In addition, the Kd came out at 431 nM with CCL18_HUMAN; 8 nM with CCL11_HUMAN; 40.8 nM with CCL24_HUMAN; 20.6 nM with CCL4L1_HUMAN; 89 nM in the test with CCL13_HUMAN; 44.8 nM in the test with CCL16_HUMAN. Moreover, the Kd with CCL7_HUMAN was 61.4 nM; with CCL3L1_HUMAN, 45.8 nM.

B11: the Kd with EVASIN4 [5] came to 69.6 nM.

As usually defined, the Kd is the equilibrium constant for the complex coming apart. A low value points to higher affinity.

The record behind these values is patent US20220175942A1 (published 2022).
